Reference: article PMC9482650, “Quantitative fragmentomics allow affinity mapping of interactomes” (Nature Communications, 2022)

How the values were obtained:
Assay in all cases: holdup assay
Design in all cases: key: below the threshold = too weak to quantify, mostly under pKd 3.1 to 4
AHNAK1, Q09666 = molecular target: AHNAK1, Q09666
APBA1_1, Q02410 = molecular target: T1, APBA1_1, Q02410
T1 sequence (Q02410 651-752, limits assumed, looked up): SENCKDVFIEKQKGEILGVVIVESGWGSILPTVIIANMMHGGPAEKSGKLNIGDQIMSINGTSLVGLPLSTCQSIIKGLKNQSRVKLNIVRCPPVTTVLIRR

DLG4_3, P78352 = molecular target: DLG4_3, P78352
Chain of DLG4_3, P78352 (P78352 306-403): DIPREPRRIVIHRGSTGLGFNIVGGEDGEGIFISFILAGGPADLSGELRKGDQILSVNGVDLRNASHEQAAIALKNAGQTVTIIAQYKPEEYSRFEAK

GRID2IP_1, A4D2P6 = molecular target: GRID2IP_1, A4D2P6
Chain of GRID2IP_1, A4D2P6 (A4D2P6 1-87): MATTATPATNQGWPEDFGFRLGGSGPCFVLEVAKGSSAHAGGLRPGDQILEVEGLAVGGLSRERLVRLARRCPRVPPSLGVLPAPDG

GRID2IP_2, A4D2P6 = molecular target: GRID2IP_2, A4D2P6
Chain of GRID2IP_2, A4D2P6 (A4D2P6 272-370): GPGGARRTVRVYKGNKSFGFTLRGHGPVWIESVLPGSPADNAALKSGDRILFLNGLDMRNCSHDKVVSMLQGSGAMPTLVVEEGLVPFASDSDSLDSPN

GRIP1_5, Q9Y3R0 = molecular target: T2, GRIP1_5, Q9Y3R0
T2 sequence (Q9Y3R0 568-668, limits assumed, looked up): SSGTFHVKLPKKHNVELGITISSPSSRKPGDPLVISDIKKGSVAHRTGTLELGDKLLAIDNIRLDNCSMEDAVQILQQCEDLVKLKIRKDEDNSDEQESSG

GRIP2_5, Q9C0E4 = molecular target: GRIP2_5, Q9C0E4
Chain of GRIP2_5, Q9C0E4 (Q9C0E4 544-642): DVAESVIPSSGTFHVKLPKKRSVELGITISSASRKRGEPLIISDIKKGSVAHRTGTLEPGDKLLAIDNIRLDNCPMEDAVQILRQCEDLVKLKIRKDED

HTRA3, P83110 = molecular target: T3, HTRA3, P83110
T3 sequence (P83110 354-453, limits assumed, looked up): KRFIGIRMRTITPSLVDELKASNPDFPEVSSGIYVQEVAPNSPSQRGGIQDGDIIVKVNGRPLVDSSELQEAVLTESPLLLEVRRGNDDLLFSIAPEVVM

HTRA4, P83105 = molecular target: T4, HTRA4, P83105
T4 sequence (P83105 378-476, limits assumed, looked up): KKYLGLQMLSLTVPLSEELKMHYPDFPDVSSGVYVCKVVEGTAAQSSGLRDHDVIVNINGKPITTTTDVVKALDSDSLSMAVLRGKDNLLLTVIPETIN

IL16_4, Q14005 = molecular target: IL16_4, Q14005
Chain of IL16_4, Q14005 (Q14005 1229-1329): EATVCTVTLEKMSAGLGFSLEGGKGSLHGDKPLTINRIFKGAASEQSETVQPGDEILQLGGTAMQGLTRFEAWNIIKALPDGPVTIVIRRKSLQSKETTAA

Inadl_10, Q8NI35 = molecular target: Inadl_10, Q8NI35
Chain of Inadl_10, Q8NI35 (Q8NI35 1673-1763): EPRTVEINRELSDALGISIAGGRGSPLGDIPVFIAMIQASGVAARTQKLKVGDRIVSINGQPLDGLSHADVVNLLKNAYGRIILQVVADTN

LDB3, O75112 = molecular target: LDB3, O75112
Chain of LDB3, O75112 (O75112 1-94): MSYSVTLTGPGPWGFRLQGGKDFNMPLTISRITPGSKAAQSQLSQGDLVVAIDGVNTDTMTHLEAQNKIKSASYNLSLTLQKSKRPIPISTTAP

LNX1_1, Q8TBB1 = molecular target: LNX1_1, Q8TBB1
Chain of LNX1_1, Q8TBB1 (Q8TBB1 261-371): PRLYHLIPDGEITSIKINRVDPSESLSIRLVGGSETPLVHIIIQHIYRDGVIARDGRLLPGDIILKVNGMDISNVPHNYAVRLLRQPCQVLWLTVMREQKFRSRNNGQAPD

LNX1_2, Q8TBB1 = molecular target: LNX1_2, Q8TBB1
Chain of LNX1_2, Q8TBB1 (Q8TBB1 371-470): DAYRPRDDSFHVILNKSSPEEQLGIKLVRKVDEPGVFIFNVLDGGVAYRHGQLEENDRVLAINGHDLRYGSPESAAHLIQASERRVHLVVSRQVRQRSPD

LNX1_3, Q8TBB1 = molecular target: LNX1_3, Q8TBB1
Chain of LNX1_3, Q8TBB1 (Q8TBB1 500-596): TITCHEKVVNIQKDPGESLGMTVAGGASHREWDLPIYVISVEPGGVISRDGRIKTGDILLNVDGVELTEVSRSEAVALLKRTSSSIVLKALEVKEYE

MAGI2_3, Q86UL8 = molecular target: MAGI2_3, Q86UL8
Chain of MAGI2_3, Q86UL8 (Q86UL8 600-682): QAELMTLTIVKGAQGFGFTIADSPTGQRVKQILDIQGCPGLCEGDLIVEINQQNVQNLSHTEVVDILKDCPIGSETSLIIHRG

MAGI3_2, Q5TCQ9 = molecular target: MAGI3_2, Q5TCQ9
Chain of MAGI3_2, Q5TCQ9 (Q5TCQ9 398-503): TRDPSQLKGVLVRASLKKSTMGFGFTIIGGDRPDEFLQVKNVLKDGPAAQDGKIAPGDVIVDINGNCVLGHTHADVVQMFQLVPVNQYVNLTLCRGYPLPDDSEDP

MAST2, Q6P0Q8 = molecular target: MAST2, Q6P0Q8
Chain of MAST2, Q6P0Q8 (Q6P0Q8 1099-1202): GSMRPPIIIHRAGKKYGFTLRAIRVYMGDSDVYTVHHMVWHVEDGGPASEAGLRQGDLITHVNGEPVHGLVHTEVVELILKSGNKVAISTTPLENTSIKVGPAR

MPP6, Q9NZW5 = molecular target: T5, MPP6, Q9NZW5
T5 sequence (Q9NZW5 125-219, limits assumed, looked up): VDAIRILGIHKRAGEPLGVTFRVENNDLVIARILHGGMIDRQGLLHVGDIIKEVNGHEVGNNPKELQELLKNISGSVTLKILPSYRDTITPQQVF

NHERF3_1, Q5T2W1 = molecular target: T6, NHERF3_1, Q5T2W1
T6 sequence (Q5T2W1 4-100, limits assumed, looked up): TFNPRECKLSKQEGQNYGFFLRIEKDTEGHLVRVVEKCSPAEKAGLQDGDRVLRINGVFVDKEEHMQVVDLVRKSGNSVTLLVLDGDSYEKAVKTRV

NHERF3_3, Q5T2W1 = molecular target: T7, NHERF3_3, Q5T2W1
T7 sequence (Q5T2W1 238-333, limits assumed, looked up): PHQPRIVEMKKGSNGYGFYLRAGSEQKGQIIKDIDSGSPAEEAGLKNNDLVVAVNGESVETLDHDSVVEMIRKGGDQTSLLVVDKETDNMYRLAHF

NHERF3_4, Q5T2W1 = molecular target: T8, NHERF3_4, Q5T2W1
T8 sequence (Q5T2W1 373-468, limits assumed, looked up): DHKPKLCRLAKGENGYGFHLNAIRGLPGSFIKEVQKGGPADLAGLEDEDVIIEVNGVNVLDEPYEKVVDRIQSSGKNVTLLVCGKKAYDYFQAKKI

NHERF4_4, Q86UT5 = molecular target: NHERF4_4, Q86UT5
Chain of NHERF4_4, Q86UT5 (Q86UT5 464-550): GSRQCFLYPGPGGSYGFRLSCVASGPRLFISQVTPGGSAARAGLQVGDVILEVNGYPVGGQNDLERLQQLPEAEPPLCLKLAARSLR

RHPN1, Q8TCX5 = molecular target: T9, RHPN1, Q8TCX5
T9 sequence (Q8TCX5 508-602, limits assumed, looked up): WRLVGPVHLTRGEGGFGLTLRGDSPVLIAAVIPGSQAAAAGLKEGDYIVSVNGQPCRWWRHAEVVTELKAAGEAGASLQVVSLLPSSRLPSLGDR

SHANK1, Q9Y566 = molecular target: T10, SHANK1, Q9Y566
T10 sequence (Q9Y566 658-767, limits assumed, looked up): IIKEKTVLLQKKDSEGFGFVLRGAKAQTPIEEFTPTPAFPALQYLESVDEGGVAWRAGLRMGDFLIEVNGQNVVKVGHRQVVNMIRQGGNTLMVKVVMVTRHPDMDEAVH

SNTG1, Q9NSN8 = molecular target: T11, SNTG1, Q9NSN8
T11 sequence (Q9NSN8 52-150, limits assumed, looked up): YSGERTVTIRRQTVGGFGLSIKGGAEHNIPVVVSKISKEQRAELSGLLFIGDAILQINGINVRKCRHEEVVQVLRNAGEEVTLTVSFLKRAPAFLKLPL

SNX27, Q96L92 = molecular target: SNX27, Q96L92
[1] = plain residues with an end cap or a label only (N-terminal biotin on a linker: ado-ado)
[2] = plain residues with an end cap or a label only (N-terminal biotin on a linker: ahx)
[3] = plain residues with an end cap or a label only (N-terminal biotin on a linker: ttds)

Chain of AHNAK1, Q09666 (Q09666 4-100): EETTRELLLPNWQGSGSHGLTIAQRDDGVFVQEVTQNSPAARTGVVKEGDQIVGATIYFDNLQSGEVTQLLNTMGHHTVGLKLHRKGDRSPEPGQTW

DAAHHDESNC [FMNL3, Q8IVF7]
pKd (AHNAK1, Q09666; [1]): below the threshold | pKd (APBA1_1, Q02410; [1]): below the threshold | pKd (DLG4_3, P78352; [1]): below the threshold | pKd (GRID2IP_1, A4D2P6; [1]): below the threshold | pKd (GRID2IP_2, A4D2P6; [1]): below the threshold | pKd (GRIP1_5, Q9Y3R0; [1]): below the threshold | pKd (GRIP2_5, Q9C0E4; [1]): below the threshold | pKd (HTRA3, P83110; [1]): below the threshold | pKd (HTRA4, P83105; [1]): below the threshold | pKd (IL16_4, Q14005; [1]): below the threshold | pKd (Inadl_10, Q8NI35; [1]): below the threshold | pKd (LDB3, O75112; [1]): below the threshold | pKd (LNX1_1, Q8TBB1; [1]): below the threshold | pKd (LNX1_2, Q8TBB1; [1]): below the threshold | pKd (LNX1_3, Q8TBB1; [1]): below the threshold | pKd (MAGI2_3, Q86UL8; [1]): below the threshold | pKd (MAGI3_2, Q5TCQ9; [1]): below the threshold | pKd (MAST2, Q6P0Q8; [1]): 3.81 | pKd (MPP6, Q9NZW5; [1]): below the threshold | pKd (NHERF3_1, Q5T2W1; [1]): below the threshold | pKd (NHERF3_3, Q5T2W1; [1]): below the threshold | pKd (NHERF3_4, Q5T2W1; [1]): below the threshold | pKd (NHERF4_4, Q86UT5; [1]): below the threshold | pKd (RHPN1, Q8TCX5; [1]): 3.75 | pKd (SHANK1, Q9Y566; [1]): below the threshold | pKd (SNTG1, Q9NSN8; [1]): below the threshold | pKd (SNX27, Q96L92; [1]): 4.2

VNENQKEYFF [CNTNAP4, Q9C0A0]
pKd (AHNAK1, Q09666; [2]): below the threshold | pKd (APBA1_1, Q02410; [2]): below the threshold | pKd (DLG4_3, P78352; [2]): below the threshold | pKd (GRID2IP_1, A4D2P6; [2]): below the threshold | pKd (GRID2IP_2, A4D2P6; [2]): below the threshold | pKd (GRIP1_5, Q9Y3R0; [2]): below the threshold | pKd (GRIP2_5, Q9C0E4; [2]): below the threshold | pKd (HTRA3, P83110; [2]): below the threshold | pKd (HTRA4, P83105; [2]): below the threshold | pKd (IL16_4, Q14005; [2]): below the threshold | pKd (Inadl_10, Q8NI35; [2]): below the threshold | pKd (LDB3, O75112; [2]): below the threshold | pKd (LNX1_1, Q8TBB1; [2]): below the threshold | pKd (LNX1_2, Q8TBB1; [2]): below the threshold | pKd (LNX1_3, Q8TBB1; [2]): below the threshold | pKd (MAGI2_3, Q86UL8; [2]): below the threshold | pKd (MAGI3_2, Q5TCQ9; [2]): below the threshold | pKd (MAST2, Q6P0Q8; [2]): 5.08 | pKd (MPP6, Q9NZW5; [2]): below the threshold | pKd (NHERF3_1, Q5T2W1; [2]): 4.91 | pKd (NHERF3_3, Q5T2W1; [2]): below the threshold | pKd (NHERF3_4, Q5T2W1; [2]): below the threshold | pKd (NHERF4_4, Q86UT5; [2]): 4.1 | pKd (RHPN1, Q8TCX5; [2]): below the threshold | pKd (SHANK1, Q9Y566; [2]): below the threshold | pKd (SNTG1, Q9NSN8; [2]): below the threshold | pKd (SNX27, Q96L92; [2]): 3.83

PSRDRKETSI [RALBP1, Q15311]
pKd (AHNAK1, Q09666; [3]): below the threshold | pKd (APBA1_1, Q02410; [3]): below the threshold | pKd (DLG4_3, P78352; [3]): 4.87 | pKd (GRID2IP_1, A4D2P6; [3]): below the threshold | pKd (GRID2IP_2, A4D2P6; [3]): 3.69 | pKd (GRIP1_5, Q9Y3R0; [3]): below the threshold | pKd (GRIP2_5, Q9C0E4; [3]): below the threshold | pKd (HTRA3, P83110; [3]): below the threshold | pKd (HTRA4, P83105; [3]): below the threshold | pKd (IL16_4, Q14005; [3]): below the threshold | pKd (Inadl_10, Q8NI35; [3]): below the threshold | pKd (LDB3, O75112; [3]): below the threshold | pKd (LNX1_1, Q8TBB1; [3]): below the threshold | pKd (LNX1_2, Q8TBB1; [3]): below the threshold | pKd (LNX1_3, Q8TBB1; [3]): below the threshold | pKd (MAGI2_3, Q86UL8; [3]): below the threshold | pKd (MAGI3_2, Q5TCQ9; [3]): 4.76 | pKd (MAST2, Q6P0Q8; [3]): 4.88 | pKd (MPP6, Q9NZW5; [3]): below the threshold | pKd (NHERF3_1, Q5T2W1; [3]): 3.68 | pKd (NHERF3_3, Q5T2W1; [3]): below the threshold | pKd (NHERF3_4, Q5T2W1; [3]): below the threshold | pKd (NHERF4_4, Q86UT5; [3]): below the threshold | pKd (RHPN1, Q8TCX5; [3]): 3.92 | pKd (SHANK1, Q9Y566; [3]): below the threshold | pKd (SNTG1, Q9NSN8; [3]): 3.76 | pKd (SNX27, Q96L92; [3]): 4.23

EKPIDSETKM [SLC1A3, P43003]
pKd (AHNAK1, Q09666; [1]): below the threshold | pKd (APBA1_1, Q02410; [1]): below the threshold | pKd (DLG4_3, P78352; [1]): below the threshold | pKd (GRID2IP_1, A4D2P6; [1]): below the threshold | pKd (GRID2IP_2, A4D2P6; [1]): below the threshold | pKd (GRIP1_5, Q9Y3R0; [1]): below the threshold | pKd (GRIP2_5, Q9C0E4; [1]): below the threshold | pKd (HTRA3, P83110; [1]): below the threshold | pKd (HTRA4, P83105; [1]): below the threshold | pKd (IL16_4, Q14005; [1]): below the threshold | pKd (Inadl_10, Q8NI35; [1]): below the threshold | pKd (LDB3, O75112; [1]): below the threshold | pKd (LNX1_1, Q8TBB1; [1]): below the threshold | pKd (LNX1_2, Q8TBB1; [1]): below the threshold | pKd (LNX1_3, Q8TBB1; [1]): below the threshold | pKd (MAGI2_3, Q86UL8; [1]): below the threshold | pKd (MAGI3_2, Q5TCQ9; [1]): below the threshold | pKd (MAST2, Q6P0Q8; [1]): 5.51 | pKd (MPP6, Q9NZW5; [1]): below the threshold | pKd (NHERF3_1, Q5T2W1; [1]): 5.23 | pKd (NHERF3_3, Q5T2W1; [1]): 3.61 | pKd (NHERF3_4, Q5T2W1; [1]): below the threshold | pKd (NHERF4_4, Q86UT5; [1]): below the threshold | pKd (RHPN1, Q8TCX5; [1]): 3.55 | pKd (SHANK1, Q9Y566; [1]): 3.76 | pKd (SNTG1, Q9NSN8; [1]): below the threshold | pKd (SNX27, Q96L92; [1]): 5.18
